The values below come from the supplement of paper PMC10567573.

The chains are these.
B1: MGC16075 (parent)
chain: AGSRQALSFEVPPCNYDPEKWIQ
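Also: lentivirally expressed fusions sorted by FACS into six bins by GFP to DsRed ratio, PSI derived from sequencing read proportions per bin multiplied by bin number.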

Variants of B1 are the subject of the data set. The data set can be described thus: protein stability index of a GFP-peptide fusion (GPS, HEK-293T) (PSI 1-6); higher = more stable. The note with it: c terminus: native.
On to AGSRFALSFEVPPCNYDPEKWIQ, for which the protein stability index came to 3.99. With AGSRHALSFEVPPCNYDPEKWIQ, the protein stability index came to 1.82. Consider AGSRDALSFEVPPCNYDPEKWIQ, for which the protein stability index worked out at 1.52. Regarding AGSRVALSFEVPPCNYDPEKWIQ, the protein stability index worked out at 2.35. As to AGSRNALSFEVPPCNYDPEKWIQ, the protein stability index came out at 1.82.

For AGSRAALSFEVPPCNYDPEKWIQ, the protein stability index was 1.8.

For AGSRKALSFEVPPCNYDPEKWIQ, the protein stability index was found to be 1.3. Regarding AGSRYALSFEVPPCNYDPEKWIQ, the protein stability index was determined as 2.68. The figure for AGSRTALSFEVPPCNYDPEKWIQ is 2.12; for AGSRPALSFEVPPCNYDPEKWIQ it is 1.47; for AGSREALSFEVPPCNYDPEKWIQ it is 3.29. AGSRMALSFEVPPCNYDPEKWIQ: the protein stability index worked out at 1.72. AGSRRALSFEVPPCNYDPEKWIQ: the protein stability index was 1.84.

Consider AGSRWALSFEVPPCNYDPEKWIQ, for which the protein stability index was found to be 4.32. Turning to AGSRSALSFEVPPCNYDPEKWIQ, the protein stability index turned out to be 1.48. The figure for AGSRGALSFEVPPCNYDPEKWIQ is 2.03. AWSRQALSFEVPPCNYDPEKWIQ: the protein stability index came to 1.68.

For ATSRQALSFEVPPCNYDPEKWIQ, the protein stability index was 1.95. The figure for AYSRQALSFEVPPCNYDPEKWIQ is 2.51; for ASSRQALSFEVPPCNYDPEKWIQ it is 1.75. Consider ARSRQALSFEVPPCNYDPEKWIQ, for which the protein stability index was 2.58.

On to AHSRQALSFEVPPCNYDPEKWIQ, for which the protein stability index worked out at 2.4. On to AASRQALSFEVPPCNYDPEKWIQ, for which the protein stability index worked out at 1.77. With APSRQALSFEVPPCNYDPEKWIQ, the protein stability index was found to be 1.94. The figure for AESRQALSFEVPPCNYDPEKWIQ is 1.48.

Take ALSRQALSFEVPPCNYDPEKWIQ: the protein stability index was 2.27. With AQSRQALSFEVPPCNYDPEKWIQ, the protein stability index amounted to 2.2.

As for AMSRQALSFEVPPCNYDPEKWIQ, the protein stability index is 2.88. As to AFSRQALSFEVPPCNYDPEKWIQ, the protein stability index came to 2.77. For AVSRQALSFEVPPCNYDPEKWIQ, the protein stability index came out at 1.97. The figure for AKSRQALSFEVPPCNYDPEKWIQ is 2; for ADSRQALSFEVPPCNYDPEKWIQ it is 1.93.

Consider ANSRQALSFEVPPCNYDPEKWIQ, for which the protein stability index was 2.37.

Consider AISRQALSFEVPPCNYDPEKWIQ, for which the protein stability index was determined as 2.37. The figure for AGSRQNLSFEVPPCNYDPEKWIQ is 2.16; for AGSRQLLSFEVPPCNYDPEKWIQ it is 3.71. As for AGSRQGLSFEVPPCNYDPEKWIQ, the protein stability index came out at 1.03. The figure for AGSRQHLSFEVPPCNYDPEKWIQ is 1.71. For AGSRQFLSFEVPPCNYDPEKWIQ, the protein stability index is 2.46. With AGSRQMLSFEVPPCNYDPEKWIQ, the protein stability index was 2.98. AGSRQKLSFEVPPCNYDPEKWIQ: the protein stability index was 2.47. The figure for AGSRQELSFEVPPCNYDPEKWIQ is 1.92; for AGSRQILSFEVPPCNYDPEKWIQ it is 3.05; for AGSRQCLSFEVPPCNYDPEKWIQ it is 2.03.

For AGSRQDLSFEVPPCNYDPEKWIQ, the protein stability index was 2.91.

Regarding AGSRQPLSFEVPPCNYDPEKWIQ, the protein stability index stood at 1.56.

For AGSEQALSFEVPPCNYDPEKWIQ, the protein stability index turned out to be 1.83. The figure for AGSWQALSFEVPPCNYDPEKWIQ is 3.74; for AGSIQALSFEVPPCNYDPEKWIQ it is 2.7. On to AGSFQALSFEVPPCNYDPEKWIQ, for which the protein stability index is 2.41. For the variant AGSSQALSFEVPPCNYDPEKWIQ, the protein stability index came to 2.21. Regarding AGSHQALSFEVPPCNYDPEKWIQ, the protein stability index was 2.67. The figure for AGSQQALSFEVPPCNYDPEKWIQ is 1.87; for AGSNQALSFEVPPCNYDPEKWIQ it is 1.98. The figure for AGSAQALSFEVPPCNYDPEKWIQ is 2.66; for AGSCQALSFEVPPCNYDPEKWIQ it is 1.57; for AGSDQALSFEVPPCNYDPEKWIQ it is 2.41. The figure for AGSGQALSFEVPPCNYDPEKWIQ is 1.39; for AGSVQALSFEVPPCNYDPEKWIQ it is 2.61; for AGSYQALSFEVPPCNYDPEKWIQ it is 1.22. Regarding AGSLQALSFEVPPCNYDPEKWIQ, the protein stability index was 2.53. With AGSMQALSFEVPPCNYDPEKWIQ, the protein stability index was 3.08.

Turning to AGSTQALSFEVPPCNYDPEKWIQ, the protein stability index was found to be 2.14. The figure for AGSPQALSFEVPPCNYDPEKWIQ is 2.77; for AGSKQALSFEVPPCNYDPEKWIQ it is 1.72.

With PGSRQALSFEVPPCNYDPEKWIQ, the protein stability index is 2.5. Take CGSRQALSFEVPPCNYDPEKWIQ: the protein stability index was 1.19.

Consider WGSRQALSFEVPPCNYDPEKWIQ, for which the protein stability index is 3.29. For LGSRQALSFEVPPCNYDPEKWIQ, the protein stability index came out at 1.22. Regarding MGSRQALSFEVPPCNYDPEKWIQ, the protein stability index is 1.25. On to SGSRQALSFEVPPCNYDPEKWIQ, for which the protein stability index is 1.46. KGSRQALSFEVPPCNYDPEKWIQ: the protein stability index came to 2.18. For DGSRQALSFEVPPCNYDPEKWIQ, the protein stability index was found to be 2.9. Turning to IGSRQALSFEVPPCNYDPEKWIQ, the protein stability index came to 1.9. The figure for HGSRQALSFEVPPCNYDPEKWIQ is 1.82; for FGSRQALSFEVPPCNYDPEKWIQ it is 3.97; for QGSRQALSFEVPPCNYDPEKWIQ it is 2.17. As for TGSRQALSFEVPPCNYDPEKWIQ, the protein stability index was determined as 2.09. The figure for GGSRQALSFEVPPCNYDPEKWIQ is 1.68; for NGSRQALSFEVPPCNYDPEKWIQ it is 2.23. Consider EGSRQALSFEVPPCNYDPEKWIQ, for which the protein stability index worked out at 2.19.

Turning to RGSRQALSFEVPPCNYDPEKWIQ, the protein stability index is 2.04. Consider YGSRQALSFEVPPCNYDPEKWIQ, for which the protein stability index amounted to 2.8.

As to AGKRQALSFEVPPCNYDPEKWIQ, the protein stability index is 2.32.

Turning to AGPRQALSFEVPPCNYDPEKWIQ, the protein stability index stood at 2.18. The figure for AGVRQALSFEVPPCNYDPEKWIQ is 1.27; for AGYRQALSFEVPPCNYDPEKWIQ it is 1.28; for AGMRQALSFEVPPCNYDPEKWIQ it is 1.92. The figure for AGDRQALSFEVPPCNYDPEKWIQ is 1.86; for AGHRQALSFEVPPCNYDPEKWIQ it is 2.44; for AGTRQALSFEVPPCNYDPEKWIQ it is 1.79. As for AGIRQALSFEVPPCNYDPEKWIQ, the protein stability index worked out at 1.99. With AGNRQALSFEVPPCNYDPEKWIQ, the protein stability index was 1.59. Turning to AGFRQALSFEVPPCNYDPEKWIQ, the protein stability index is 4.6. Turning to AGCRQALSFEVPPCNYDPEKWIQ, the protein stability index worked out at 1.52.
